{
  "source": "patent US20200316163A1",
  "about": "(APELLIS PHARMACEUTICALS, published 2020)",
  "binders": {"B1": {"name": "CA28-AEEAc-Lys-(PEG30k) (peptide)", "peptide": "ICVWQDWGAHRCTK", "modifications": "not fully specified; N-terminal acetyl; 1-methyl-Trp at position 4; disulfide Cys2-Cys12; AEEAc (8-amino-3,6-dioxaoctanoyl) spacer between Thr13 and Lys; C-terminal amide; linear monofunctional 30 kD PEG (NOF ME-300GS) on the Lys side …"}, "B2": {"name": "(CA28-AEEAc)8-PEG40k (peptide)", "peptide": "ICVWQDWGAHRCTK", "modifications": "N-terminal acetyl; 1-methyl-Trp at position 4; disulfide Cys2-Cys12; AEEAc spacer between Thr13 and Lys; C-terminal amide; Lys side chain coupled to an arm of an eight-arm 40 kD PEG (NOF HGEO-400GS)"}, "B3": {"name": "CA28-AEEAc-Lys-(PEG40k) (peptide)", "peptide": "ICVWQDWGAHRCTK", "modifications": "not fully specified; N-terminal acetyl; 1-methyl-Trp at position 4; disulfide Cys2-Cys12; AEEAc spacer between Thr13 and Lys; C-terminal amide; linear monofunctional 40 kD mPEG (NOF ME-400GS) on the Lys side chain"}, "B4": {"name": "CA28-2GS-BF (bifunctionalized PEG-based compstatin analog, GS type) (peptide)", "peptide": "ICVWQDWGAHRCTK", "modifications": "not fully specified; N-terminal acetyl; 1-methyl-Trp at position 4; disulfide Cys2-Cys12; AEEAc spacer between Thr13 and Lys; C-terminal amide; Lys side chain coupled to one end of a linear bifunctional 40 kD PEG (glutaryl, GS type; amide plus ester linkage)"}, "B5": {"name": "CA28-AEEAc-Lys(mPEG40K-carbonyl) (peptide)", "peptide": "ICVWQDWGAHRCTK", "modifications": "not fully specified; N-terminal acetyl; 1-methyl-Trp at position 4; disulfide Cys2-Cys12; AEEAc spacer between Thr13 and Lys; C-terminal amide; linear 40 kD mPEG (NOF ME-400TS) on the Lys side chain"}, "B6": {"name": "CA28-AEEAc-Lys(mPEG40K-succinyl) (peptide)", "peptide": "ICVWQDWGAHRCTK", "modifications": "N-terminal acetyl; 1-methyl-Trp at position 4; disulfide Cys2-Cys12; AEEAc spacer between Thr13 and Lys; C-terminal amide; linear 40 kD mPEG (NOF ME-400CS) on the Lys side chain"}, "B7": {"name": "CA28-AEEAc-Lys(mPEG40K-hexanoyl) (peptide)", "peptide": "ICVWQDWGAHRCTK", "modifications": "N-terminal acetyl; 1-methyl-Trp at position 4; disulfide Cys2-Cys12; AEEAc spacer between Thr13 and Lys; C-terminal amide; linear 40 kD mPEG (NOF ME-400HS) on the Lys side chain"}},
  "test_in_all_cases": "cell-based or functional assay",
  "key": {"[1]": {"molecular_target": "T1, human complement component C3 (human, UniProt P01024 23-1663)"}, "[2]": {"molecular_target": "T1, human complement component C3", "remark": "listed apart in the source"}, "[3]": {"molecular_target": "T1, human complement component C3", "remark": "listed apart in the source"}, "[4]": {"molecular_target": "T1, human complement component C3", "remark": "listed apart in the source"}},
  "data": [
    {"binder": "B1", "values": [
      {"measurement": "IC50, classical complement inhibition assay (C3b deposition ELISA, human plasma)", "setting": "[1]", "result": 1.26, "unit": "µM"}
    ]},
    {"binder": "B2", "values": [
      {"measurement": "IC50, classical complement inhibition assay (C3b deposition ELISA, human plasma), as a function of CA28 moiety concentration", "setting": "[1]", "result": 1.93, "unit": "µM"},
      {"measurement": "IC50 on a molar basis (corrected for 7.5 CA28 moieties per molecule), classical complement inhibition assay", "setting": "[2]", "result": "~0.26", "unit": "µM"}
    ]},
    {"binder": "B3", "values": [
      {"measurement": "IC50, classical complement inhibition assay (C3b deposition ELISA, human plasma)", "setting": "[1]", "result": 1.29, "unit": "µM"},
      {"measurement": "IC50 (read off the curve), inhibition of classical pathway complement activation (C3b deposition ELISA)", "setting": "[3]", "result": "~0.6", "unit": "µM"}
    ]},
    {"binder": "B4", "values": [
      {"measurement": "% Parent in Q1 (Type III cells with high C3d), modified Ham's test, 50 ug/ml", "setting": "[4]", "result": 0.01, "unit": "%"},
      {"measurement": "% Parent in Q2 (Type I and II cells with high C3d), modified Ham's test, 50 ug/ml", "setting": "[4]", "result": 0.01, "unit": "%"},
      {"measurement": "% Parent in Q3 (Type III cells without significant C3d), modified Ham's test, 50 ug/ml", "setting": "[4]", "result": 61.5, "unit": "%"},
      {"measurement": "% Parent in Q4 (Type I and II cells without significant C3d), modified Ham's test, 50 ug/ml", "setting": "[4]", "result": 38.5, "unit": "%"}
    ]},
    {"binder": "B5", "values": [
      {"measurement": "IC50 (read off the curve), inhibition of classical pathway complement activation (C3b deposition ELISA)", "setting": "[3]", "result": "~0.6", "unit": "µM"}
    ]},
    {"binder": "B6", "values": [
      {"measurement": "IC50 (read off the curve), inhibition of classical pathway complement activation (C3b deposition ELISA)", "setting": "[3]", "result": "~0.7", "unit": "µM"}
    ]},
    {"binder": "B7", "values": [
      {"measurement": "IC50 (read off the curve), inhibition of classical pathway complement activation (C3b deposition ELISA)", "setting": "[3]", "result": "~0.7", "unit": "µM"}
    ]}
  ]
}
